Laboratory results from the supplement of paper PMC12764529.
± gives the half width of the 95% confidence interval.

Experiments:
[1] = folding stability dG unfold (combined trypsin and chymotrypsin); higher = more stable
In short: (§1)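 Unfolding free energy was derived, per protease or combined, against a sequence-predicted unfolded-state K50 and a shared folded-state K50, starting from K50 inferred by Bayesian fitting of sequencing counts. Digestion with trypsin and chymotrypsin was carried out on designed mini-proteins under 80 residues without cysteine in a PA-tagged cDNA display construct. Only designs with AlphaFold2 dimer inter-PAE above 15 were kept.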

[2] = folding stability dG unfold from trypsin proteolysis; higher = more stable
In short: as §1

[3] = folding stability dG unfold from chymotrypsin proteolysis; higher = more stable
In short: as §1

Sequence	folding stability dG unfold [1] [kcal/mol]	folding stability dG unfold [2] [kcal/mol]	folding stability dG unfold [3] [kcal/mol]
SAGGSAGGSAGPNAVYLGELEVTTRNPDGDRPLRVRVELYLVPTPEGLRLLARVLEVEELSAGGSAGGSAGG [r11_113_TrMRF]	3.4 ± 0.04	2.81 ± 0.052	3.644 ± 0.021
SAGGSAGGSAGPPNQRHEYEIKLTIYDPDNGKKFTIKIPMESPWDMPNFMRKLADNGYIKSAGGSAGGSAGG [r11_668_TrROS]	1.12 ± 0.11	0.557 ± 0.14	1.38 ± 0.11
SAGGSAGGSAGPRIVAFNVPNGKTIPLFAPDGWMIRINIERDPKDGEHKMETEYVPADDISAGGSAGGSAGG [r17_287_TrROS]	-0.419 ± 0.29	-0.424 ± 0.37	-0.276 ± 0.44
SAGGSAGGSAGPRYRLRIELRLERNEDGSLSLSAKIEIERIEPPPPPPRVVLYNGKLYLLSAGGSAGGSAGG [r17_418_TrROS_Hall]	4.28 ± 0.34	3.91 ± 0.41	4.35 ± 0.21
SAGGSAGGSAGPSDDVKPYEVEAEFLIPGTGERVRVRAEVYTLDEEKGLALVRVEVEPVLSAGGSAGGSAGG [r11_1029_TrMRF]	2.41 ± 0.18	1.54 ± 0.07	2.88 ± 0.054
SAGGSAGGSAGPSYIAVVEFENGERPVYLFPPNTGKLEDIVEELKKKFPSLKKITIYPAPSAGGSAGGSAGG [r11_311_TrMRF]	3.33 ± 0.087	3.58 ± 0.17	3.01 ± 0.16
SAGGSAGGSAGPVPKTITVTVSSPEEAEAAVKEIKPKYPNVKVERKKVGDKIVLTITVEESAGGSAGGSAGG [r17_319_JUSTAS]	1.75 ± 0.16	1.86 ± 0.11	1.88 ± 0.093
SAGGSAGGSAGRAEIPITFNGKKVEVEVEPDPDNGHPIITIKFGNKPVVINPDGQIRPFPSAGGSAGGSAGG [r11_732_TrROS]	0.0302 ± 0.19	-0.0507 ± 0.11	-0.0926 ± 0.47
SAGGSAGGSAGRRIVFQFPLGMPIDEIADELADNGYEVEINWEPDPNGWMTFVIEITPPDSAGGSAGGSAGG [r11_1050_TrROS]	1.97 ± 0.11	1.45 ± 0.016	2.31 ± 0.097
SAGGSAGGSAGRRVTINHNPENGFFRVKVYPPKGKSQVYPIPMENLEEIKKNLPPGVEIVSAGGSAGGSAGG [r11_569_TrROS]	-0.102 ± 0.12	0.206 ± 0.12	-0.511 ± 0.24
SAGGSAGGSAGSFVKGGTVYEIYKNPNTKKYTIVATPKNGKKYVFTFDSPEEAEKALKASSAGGSAGGSAGG [r11_238_TrMRF]	2.38 ± 0.065	1.65 ± 0.036	2.64 ± 0.046
SAGGSAGGSAGSIKEALKKLKPGDTVEIEITLKDGSKIKIRVKVIRDKKTKKYKVKIEIESAGGSAGGSAGG [r11_343_TrROS_Hall]	3.99 ± 0.31	4.16 ± 0.47	3.84 ± 0.077
SAGGSAGGSAGSKDTMYLLKVKDLGENELKETYIEVPAEKVQEVIDALSSDPNLEIEVIPSAGGSAGGSAGG [r17_50_TrMRF]	1.11 ± 0.064	1.06 ± 0.041	1.09 ± 0.054
SAGGSAGGSAGSKKKRVITIWIPPNQSIEEAKNFMDEGFPIKEIDVQTRPDGHMMVTITLSAGGSAGGSAGG [r11_97_TrROS]	1.21 ± 0.14	1.56 ± 0.061	1.05 ± 0.14
SAGGSAGGSAGSLPIPISSESVSSLPESPLSVVTVKLPDGKTVVITVDLNSSSSSVTPLPSAGGSAGGSAGG [r17_369_JUSTAS]	1.37 ± 0.051	1.61 ± 0.051	1.12 ± 0.032
SAGGSAGGSAGSLTFQLPNGTEITVTEITLEIKLPNGDVILIKITVDPEPPVTTEVTFVNSAGGSAGGSAGG [r11_804_JUSTAS]	1.64 ± 0.13	1.8 ± 0.066	1.37 ± 0.09
SAGGSAGGSAGSMAVDLKITISEDPSKPTYTGTVHLPDGTVVTVTSTGSPEELRARLEALLSAGGSAGGSAG [r3_143_JUSTAS]	1.68 ± 0.088	0.0769 ± 0.076	1.94 ± 0.044
SAGGSAGGSAGSMTITITETKKLPNGKTVVTTTKVEVRVFPNGGAIERKTLEVVTEELLGSAGGSAGGSAGG [r17_129_JUSTAS]	1.58 ± 0.098	1.34 ± 0.041	1.79 ± 0.053
SAGGSAGGSAGSMTLLATETFPETGKTVKYYKEGDTIYRVDYSDPKNPVVTELSPSDPLKSAGGSAGGSAGG [r17_145_JUSTAS]	2.12 ± 0.086	1.68 ± 0.09	2.29 ± 0.054
SAGGSAGGSAGSMTTTTTIVKLPNGTLVLETPTVTTTTFPETGTTTTTTTVTVTVLPGLSSAGGSAGGSAGG [r11_1008_JUSTAS]	1.89 ± 0.065	2.47 ± 0.076	1.3 ± 0.029
SAGGSAGGSAGSPIDTLVEEKTFTLPNGEKVIEATLKRPPGEPVHVVTIETKDSVIVELESAGGSAGGSAGG [r17_316_JUSTAS]	0.462 ± 0.049	0.513 ± 0.019	0.304 ± 0.086

Sequence	folding stability dG unfold [1] [kcal/mol]	folding stability dG unfold [2] [kcal/mol]	folding stability dG unfold [3] [kcal/mol]
SAGGSAGGSAGSPKGKPPKPTIEYEPITFEIPNPDGQGFELEISIIRMPGNGQEFIGISFSAGGSAGGSAGG [r11_1024_TrROS]	1.58 ± 0.17	0.611 ± 0.086	1.86 ± 0.069
SAGGSAGGSAGSPLAQAVIDELKAQGYTVEAVTVTQPPGNAPVVVVTVKKPDGTRVVIDLSAGGSAGGSAGG [r11_780_JUSTAS]	2.39 ± 0.07	2.74 ± 0.12	2.182 ± 0.016
SAGGSAGGSAGSPMSAEEVEERLREELRRELGPDYTVTVTVTEVLPEGVYVVSVTVTGPASAGGSAGGSAGG [r11_153_JUSTAS]	2.21 ± 0.099	2.49 ± 0.14	1.96 ± 0.028
SAGGSAGGSAGSPVSNPEGGTITNTETLPDGKTIVNTQTIDPSKPKTTTSTTVLDPNGNAVSAGGSAGGSAG [r3_433_JUSTAS]	1.27 ± 0.13	0.894 ± 0.053	1.55 ± 0.045
SAGGSAGGSAGSSLPVLETREEGDLVYLLFPETNLLLVVRRGPGEVEVPSAVRVPPDVPLSAGGSAGGSAGG [r17_30_JUSTAS]	0.958 ± 0.063	0.805 ± 0.022	1.03 ± 0.047
SAGGSAGGSAGSSMTSTVTEVSTLSNGGTVVTTTTTSYYPSTGTTTTSTTTTTFTDGKAVSAGGSAGGSAGG [r11_337_JUSTAS]	1.05 ± 0.03	1.08 ± 0.057	0.932 ± 0.027
SAGGSAGGSAGSSPSDLKVTLKVTLPDGTVLTVVMPAHATLDDFPADRPVTVTTLETKLESAGGSAGGSAGG [r11_997_JUSTAS]	1.29 ± 0.12	1.66 ± 0.084	0.656 ± 0.043
SAGGSAGGSAGSSTSTSSDGVLTTYFPDGTVTSTETKPDPSTGTVLAVSTTTTPLPPDTLSAGGSAGGSAGG [r11_497_JUSTAS]	1.39 ± 0.032	2.01 ± 0.044	0.572 ± 0.035
SAGGSAGGSAGSSVKTYTGKGKKITITKLDNGTYIVTTPDKTSTYPPSVSEEEVIKKALESAGGSAGGSAGG [r17_272_JUSTAS]	0.282 ± 0.17	0.506 ± 0.093	-0.0797 ± 0.44
SAGGSAGGSAGSTALVETREFEDGTVVERVEVTLPNGEVLERTVVLTRDEAGNVVEEEVESAGGSAGGSAGG [r11_709_JUSTAS]	0.958 ± 0.053	0.224 ± 0.03	1.29 ± 0.021
SAGGSAGGSAGSTTTTITDPANGEAYEVTSDPNGGATITNPNSSQVYYKNADTITSVGASSAGGSAGGSAGG [r17_476_JUSTAS]	-0.0736 ± 0.19	-0.263 ± 0.087	-0.198 ± 0.49
SAGGSAGGSAGSVLILVSREDLEALLEAGAEIVEVSDDYVLIRVEVPEVEVLDENGKRLDSAGGSAGGSAGG [r11_828_TrROS_Hall]	2.21 ± 0.077	1.9 ± 0.042	2.43 ± 0.056
SAGGSAGGSAGSVTVSSTTTTLTDSMRVITETFTSPDLVKVTFVPTSNPEDVTVTTLPSASAGGSAGGSAGG [r11_1046_JUSTAS]	0.643 ± 0.092	-0.417 ± 0.093	1.04 ± 0.026
SAGGSAGGSAGTETKVLFIDENFESVEEAFQALRDLLPDNYKIEPLGVFPAKNKVVVLVTNPSAGGSAGGSA [r18_429_TrMRF]	0.589 ± 0.15	0.646 ± 0.056	0.189 ± 0.27
SAGGSAGGSAGTIKVNGKTVTITKNKKTGKYTITVTLKNGEKKTFVFPSKEDVEEALKALSAGGSAGGSAGG [r11_238_TrROS_Hall]	3.94 ± 0.13	3.27 ± 0.11	4.14 ± 0.08
SAGGSAGGSAGTITILFKDPEDAIDRIKEFAQKEGYKVKIDEIEYTPNGYVWIDIDIEPPSAGGSAGGSAGG [r11_304_TrROS]	1.35 ± 0.099	1.06 ± 0.045	1.49 ± 0.11
SAGGSAGGSAGTITINGKPITIEKLDNGYYKVKVNGKWYEIKPGEKIELPKGATVSIEKVSAGGSAGGSAGG [r11_147_TrROS_Hall]	2.27 ± 0.14	1.21 ± 0.069	2.6 ± 0.035
SAGGSAGGSAGTKTITLPNGLTLTIKPDEPVTITLVKVDPETNEIVEEKTITVYVKEDDLSAGGSAGGSAGG [r11_497_TrROS_Hall]	1.2 ± 0.076	1.08 ± 0.021	1.19 ± 0.061
SAGGSAGGSAGTLEALKNLKPGETVTLRVELRVERRYLDPNGKEHTEEVSTVTLELTLKPSAGGSAGGSAGG [r11_36_TrROS_Hall]	3.49 ± 0.11	3.22 ± 0.11	3.62 ± 0.054
SAGGSAGGSAGTLKLTLEVTVTRLYRLPDGSGSLVAETVRVRVEVELEVDELDEDGRLLLSAGGSAGGSAGG [r11_558_TrROS_Hall]	3.18 ± 0.07	3.08 ± 0.14	3.269 ± 0.024
SAGGSAGGSAGTVEEIAKYFAGEFPNYKVNIDVEWEGGKITSVDIEWEVVPPPPPESPGKSAGGSAGGSAGG [r11_197_TrROS]	0.834 ± 0.22	1.16 ± 0.12	0.309 ± 0.18
